Source: the DeepSol protein solubility set

assay: soluble on expression in E. coli; label from the status in PepcDB or PDB records

Row | Sequence | soluble on expression in E. coli
1 | MQALQERLEKLENATGSEVWEVLKASEPELRQDLSSLQKLKADKESAAREALTALKTKKNELKNLKNDVESLKNEYKTYIEMVENGLKQSGLDIKQVVQVFERVLEESLSEKRLAILSTIDSAHISDIKSIKTPVKSILKLLEDPNKLQLRILVQSELREFSNSAIEIFRRSLWDLFQNQGIPMKNLGEMPNSEDFLQKIGELFQFSTDLDKLIAGNWGKSIENLISAAFGQLSNYCIDIIENERGEADFEWILKSSHDWAKNLSQILQKTVEKSNLESELKQEFEEKFNEKFVDFIKLITRKFLEKNIKEPTIFSNVAQMLKKFKISSEFNLSGDRDLQEPFYEPKFMSRWILVYYIVAKISEYPVLTQLFAPLKITVVSKKIFFF | not soluble
2 | MSTSKRPYKILLRKVESKEENKKDTNETKKKEEESKHYEDRHYRKNDIKHYEENEKTIKSKMHYNSRNRYYDKYSMSYSRYDEKLNKQHSSEKKKDVLVPLLEQASINIKKKKIIIRKLPPTLTEENFFDSFSNNIKDELDYYYFVNGSASKDSSNDIIYSRMYLSFKDDMKTDEFIRTQNGKFFYDLNGVKYKALVSYAPNQTLIKKNKPDSRNNTLESDEYFLKCCEEMNNPVQRVKKDIDYSELINVQTENGAILSPIVIELRSKKKK | not soluble
3 | MVLDQGDVISRINEGAISSSLEDLAKETGKEVRFVTIHRLDYGETPESFAQALFEKWFPSKEAQANQILLVLDTVTNGTAIITGDEVKPLLTDTIANSVAEETLAAPLRDGNKYNQAFLDASDRLVAVLSGQPDPGPPQIVDKLEHHHHHH | soluble
4 | MQFVWEAERTKAKVNAMLCLKRQAVANPLFGKGRLKIFSDDLLFIEQIPQTADNPTDKLLQFRVDFLLFPRKANKSRKNIKNVKKLRTNSLISCNYM | not soluble
5 | MKIGFIGAGSMGGAMIKGLLKAEAVKKEHLYVKGGSSGTAEALQKEWGFQLVTDYALFQECKVIFIATGAKVVLPVLQELAPHFSNESLLISVATGHTIQEAQMALGNKEAKVVHAIPNTPVSVNQGVIGVALAPTIEGQTKDLAMELLATLGLVKEIREAQLETFGTVAGCSPAFVDIFMEALGDAAVLEGLPRDLSYEIVAQMIKGTATLALDTKKHPGALKDEVTSPGGSTIRGVVALEKNGFRYAVMDAVQQANHE | soluble
6 | SSTFSASDFNSERYSSSRPSYPSDFYKMIDEYHDGERKLLVDVGCGPGTATLQMAQELKPFEQIIGSDLSATMIKTAEVIKEGSPDTYKNVSFKISSSDDFKFLGADSVDKQKIDMITAVECAHWFDFEKFQRSAYANLRKDGTIAIWGYADPIFPDYPEFDDLMIEVPYGKQGLGPYWEQPGRSRLRNMLKDSHLDPELFHDIQVSYFCAEDVRDKVKLHQHTKKPLLIRKQVTLVEFADYVRTWSAYHQWKQDPKNKDKEDVADWFIKESLRRRPELSTNTKIEVVWNTFYKLGKRV | soluble
7 | MGSDKIHHHHHHMQPLLQLQGITKSFPGVKALSGAALNVYPGKVMALVGENGAGKSTMMKVLTGIYRKDAGSIHFLGQEVDFNGPKASQEAGIGIIHQELNLIPQLTIAENIFLGREFTNRFGRIDWNKMYAEADKLLKRLNLRYDSRRMVGDLSIGDQQMVEIAKVLSFESKVIIMDEPTDALTDTETASLFSVINELQSQGCGIVYISHRLKEIFEICDDITVFRDGQFIGERPVSDLEEDTLIEMMVGRKLEDQYPRSNKAPGEVRLKVQNLSGPGVDSVSFTVRKGEILGVAGLMGAGRTELMKILYGALPRTGGNVTLDGRDVVTRKPQDGLANGIVYISEDRKRDGLVLGMSVKENMSLTALRYFSHAGGRLKHAEEQLTVADFIRLFNVKTPSMEQPIGLLSGGNQQKVAIARGLMTRPNVLILDEPTRGVDVGAKKEIYQLINQFKEEGLSIILVSSEMPEVLGMSDRIIVMHEGRLSGDFPIEQATQEALMAAAVGKQYGAKQE | not soluble
8 | QRSYERDFPHHDRICIVKTHGTRQSQEGDKPEELDFSQVSGGVAPAIQEEIPGVELATRTTLYGTSKMILEDNKTYETKTLLAEPAFLDMFGVELIAGVRDSALRDNMTCLISESLARKMGGDVLGKRLRPAESKSDRAITIGGVFEDLPHNSSIQADMLLPITWMPAESLNNWIGNDRYIAYVRLRPGVSPESLDEALLEMQKRHQDMEVFRKAGVELHYSLTPFNRLRLEDPTLVNMLRIQQ | soluble
9 | MMSVEHSANSQKKVIVGMSGGVDSSVSAYLLKQQGYQVEGLFMKNWEEDDNEEYCTAAEDLADAQAVCDKLGIPLHTINFAAEYWDNVFEYFLAEYKAGRTPNPDILCNKEIKFKAFLEFADEVLDADYIAMGHYVRRTFPQNGEKPQMLRGLDGNKDQSYFLYTLSHEQVARTLFPVGELEKPEVRRIAEEQGLITAKKKDSTGICFIGERKFTDFLSRYLPAQPGKIETPEGKVIGEHQGLMYHTLGQRKGLHIGGMKESSEQPWYVADKDLKRNVLIAVQGADHPLLKSHGLVAAQLHWVDRTPITEPVRCSVKTRYRQSDIACTIIPLSDDRIKVMFDEPQVAVTPGQSAVFYQGEICLGGGIIEERI | not soluble
10 | MGSDKIHHHHHHMTKKTGFFKRLKALELPQKQLFAIALCQRMLPNYQLFSEVCEFGDPAVLNTVLELLWQSQYDNKLKFNIDVHLQRLEDNTPDPVDFEAYGVYPAMDAVVALSTLLSAIQDKNEEDIINISKLSSSTVANYIEAISDVDLVDDALDDFVFAHEVMEEEKELQNSLLEIIEENPKITAELVKGLRKDIIEAGVSNIGISIA | not soluble
11 | SLADYYQVQLNMMPPVNLTVLDHCVENYSWNQMMEQAKLYADMFGFHKYWSVDEDDISTGFTALRSIVMSSSNGQIKMPINEPVKSIMKGQIEEFNDFNGGPGIQHIAFRTNNIIETVMALMQRGVEFNHTSENYYNNLKQRLNNDGIKLYEDFDTLRSLNILIDYDPSEG | not soluble
12 | GPLGSYGDAIPEVKAILEAKNEEELVTFTSRWSAEERKELRTQFQDTTGLEFIAFLKKCIKNGPYEDVMALGWDCNISARVNVIKKAMKNVNDFRAIHDVVLIATPDERLKLAQAYKEKTGNDLLQDFVDQIPLTSAASYLCHLAIRENRTPRGSVASDAEVLKHNLIDADEPDHEAVVRLIITSTADEYKEINHRFEVLTGKSVQEAIETRYADKENARGLCIAHYYNLAPARAVAYAFHSAVETQNDDMAYEQAARITGLFHDLHKFAWVHYACWGVMRDDILSRFQSKEANKVNFRDACLMFWKLAK | soluble
13 | MDIQTRKSILWDAFEELKTRWGADEKFLERVEEEELTVDGLPESKVRDLIELREKYQLDELEFLFIVGTAVGLYQGQKQVKEILQRRMSALNEFVSSLVGREL | not soluble
14 | MGSDKIHHHHHHMTMTFALRDPAQVLARALELRVDVSPETAEVEHELGALHDRMRRPGDRLHDMPHMPSGLPGLRLRYREADGEIFVYVEDVASRQLAGYTVFNRLIEVGRRADPWVRSPHTKFAPPYQRLGLASGLYRWALDGGLCLLSGARQSAGAHALWQSLGRRYALGYVDLRYKTLTSLGEQVSAVVKDDLHTRMLLLGHGWTLGRFKEATGMY | not soluble
15 | MYTPVSKSTKSNKNRSSLDKILDAKKPVNLLILGTDTGAEGRSVKNYHGLTDLMMFVTVNPSKKQTRVTTIARDSKVNLPDYPEVSPIKLNSAYSLGGVSETIKTLDKYYSVPIDGYVLVNWASTMKIITKMGGVDVISPLTFDNMGYSFKKGQMYHISGKKALAFVQLRHGDPRQDYGRQERERLVMMAAIKKSVSYKTILNSSFMQSLGDSMQTDLSLNDMIKLAMNYQGVTDNVKSDYAQGKSSSVNNLEHHHHHH | soluble
16 | MTKKDEVKELEVKNNIPEAEKKPFNKFGKQEKHTVEDVEYTFQFPGTRAAQAILDNSKGPSNTFSDVAYHSQLMDSVIVTPKLNWDYWDEHEGYREVMALADNFLGRMLN | not soluble
17 | MGSDKIHHHHHHMSKAYSSNLTQDQWELLEPLIPVGKTGGRPRVVEMWQVINAIFYVLTQGCTWRNLPGDLPNWQTVYTYFRNWRKDGTWVSIHDQLRDWERVNNERAVSPTEAIIDSQSVKTAAMVTQQVGYDAGKKVKGRKRFLTVDTLGLVLPVLVSAASVDERSGGKLLLQKVKQMGDKVSRLNLIWVDGGYDGNPFMQWVMDFYRWVVQVVLRPRERKGFVLLPKRWVVERTFGWLTGCRRLNKDYELLPETAENFIYLAMIRIMVRRLA | not soluble
18 | MSLSEFLTKNEEKIEKIVKFHRSFDEMSQTQRQAWLEEMGDINIEHFFKANQRVFDEDGPRERSIPRRDFFLDVIKNRVKSDPLLQPKGHPVTNYLQENIHIRKLCEKITDTFCVEEIASYDAALNLLYELSKIHTHYLRKEDQLFPYLEKHNFTYPSTGMWKFQDEIRANLKMVIKAFEKNELNKEMQTLMRDVVKDIFDMTTREEKMLLPTSVKLLSNEEWIKMRKEEQEIGYVFIQSPPMWPEDESHKPDMASSLGSIFLQEGSLSQEQLNLFFSHLPFDVTFVDENDRVAFFNKGSERTFLRSAGVIGREVKFCHPPKSVDAVLKILEAFKAGTKESAEFWITFGGRLIHIRYFALRDSEKNYKGVVEITQDITDIKNIEGERRLLDWEEGHHHHHH | soluble
19 | MGSDKIHHHHHHMQCIRVGVIGAGGVAQVEHIPNLLKLHRQFKILGVYDPSRKVRAFVGEEFGLETFSDLDALLAMPLDAVVIASPDALHREQSLAAFARGLHVFCEKPLCYGAQDIDQLIAARDRAGKVLQVGYMKRFDPSYEAALNMLPGTARTLRSVSVEVNDPDAWPFIRHASTCRGDDVAAELIASTEARQREQVDRAVPGLDDPHAFRGFVGAYSSSIVHDVNAVHGLLDALGVADGEIVGASLFAKGEAGQGTVRLLDGQALWTMAHIATPGLPDYRERITLHFDDASLELEFPSPYLNHQPTRLTIRTGDGHTLSSRDIRSGYEEAFVEELKGFWSAIVEGTAVRNTAEHARRDMTLLAGLTRHHLDQSKQSGVRP | not soluble
20 | ARVDQTPRSVTKETGESLTINCVLRDASYALGSTCWYRKKSGEGNEESISKGGRYVETVNSGSKSFSLRINDLTVEDGGTYRCGLGVAGGYCDYALCSSRYAECGDGTAVTVN | soluble
21 | VFPSNATFGMGDRVRKKSGAAWQGQIVGWYCTNLTPEGYAVESEAHPGSVHIYPVAALERIN | soluble
22 | DITGIPTGFTELDRMTAGFQRNDLIIVAARPSVGKTAFALNIAQNVATKTDESVAIFSLEMGAEQLVMRMLCAEGNINAQNLRTGNLTEEDWGKLTMAMGSLSNSGIYIDDTPGIRVSEIRAKCRRLKQESGLGMILIDYLQLIQGSGRSKDNRQQEVSEISRELKSIARELQVPVIALSQLSRGVEQRQDKRPMMSDI | not soluble
23 | MSLLRKDATEERLTGRYFTPKDLASYIIDWVIQDNNINKILEPSCGNGVFLECLGERRLEDGRNITAIEIDEDVSFEASMQIDNSLRFNNCYDYQRALRNDGDIVNNGIVIINDDFYKVYEQELQGQRFQAIVGNPPYIRYQYLSEQQREEQSKILIRNNMRPNKLINAWVSFVVACAEILDGNGKMGLVIPAELLQVAYAEDLRRFIMRTFQRITIVTFRELVFPNVQQEVVLLLVEKEILHTREGHHHHHH | soluble
24 | MKVNKFITIYKDIAQQIEGGRWKAEEILPSEHELTAQYGTSRETVRKALHMLAQNGYIQKIRGKGSVVLNREKMQFPVSGLVSFKELAQTLGKETKTTVHKFGLEPPSELIQKQLRANLDDDIWEVIRSRKIDGEHVILDKDYFFRKHVPHLTKEICENSIYEYIEGELGLSISYAQKEIVAEPCTDEDRELLDLRGYDHMVVVRNYVFLEDTSLFQYTESRHRLDKFRFVDFARRGK | soluble
